Data published in article PMC4386032, “A Dynamin-Actin Interaction Is Required for Vesicle Scission during Endocytosis in Yeast” (Current Biology, 2015).

Legend:
[1] = target: the molecule itself; experiment: negative-stain electron microscopy; purified Vps1 imaged directly, adsorbed on carbon-coated grids, negative staining with uranyl formate; oligomeric rings
[2] = target: rabbit muscle actin (F-actin) (rabbit, UniProt P68135 1-377); experiment: co-sedimentation; high-speed F-actin pelleting: purified Vps1 (supernatant of a 90,000 x g pre-spin) mixed with pre-polymerized yeast or rabbit muscle F-actin (10% KME pH 8), 15 min, spun 90,000 x g; supernatant and pellet by SDS-PAGE, densitometry; KD from a single site binding curve over a range of Vps1 concentrations; 1.5 uM Vps1 with 3 uM F-actin in Figure 1A; conditions: both partners purified

B1: Vps1 (yeast dynamin), wild type, recombinant His tag fusion (natural protein, yeast (budding yeast), UniProt P21576 1-704, looked up)
chain: MDEHLISTINKLQDALAPLGGGSQSPIDLPQITVVGSQSSGKSSVLENIVGRDFLPRGTGIVTRRPLVLQLINRRPKKSEHAKVNQTANELIDLNINDDDKKKDESGKHQNEGQSEDNKEEWGEFLHLPGKKFYNFDEIRKEIVKETDKVTGANSGISSVPINLRIYSPHVLTLTLVDLPGLTKVPVGDQPPDIERQIKDMLLKYISKPNAIILSVNAANTDLANSDGLKLAREVDPEGTRTIGVLTKVDLMDQGTDVIDILAGRVIPLRYGYIPVINRGQKDIEHKKTIREALENERKFFENHPSYSSKAHYCGTPYLAKKLNSILLHHIRQTLPEIKAKIEATLKKYQNELINLGPETMDSASSVVLSMITDFSNEYAGILDGEAKELSSQELSGGARISYVFHETFKNGVDSLDPFDQIKDSDIRTIMYNSSGSAPSLFVGTEAFEVLVKQQIRRFEEPSLRLVTLVFDELVRMLKQIISQPKYSRYPALREAISNQFIQFLKDATIPTNEFVVDIIKAEQTYINTAHPDLLKGSQAMVMVEEKLHPRQVAVDPKTGKPLPTQPSSSKAPVMEEKSGFFGGFFSTKNKKKLAALESPPPVLKATGQMTERETMETEVIKLLISSYFSIVKRTIADIIPKALMLKLIVKSKTDIQKVLLEKLYGKQDIEELTKENDITIQRRKECKKMVEILRNASQIVSSV
notes: Vps1, dynamin-like protein of budding yeast; wild-type VPS1 expressed as a His tag fusion; Template plasmids pKA677 and pKA850 are named; Forms oligomeric rings by EM; also called wild-type Vps1; yeast dynamin Vps1; source: E. coli (C43), purified
binding result [1]: binds
Kd [2]: 920 ± 310 nM

B2: Vps1 RR457,458EE, recombinant His tag fusion (natural protein, yeast (budding yeast), UniProt P21576 1-704, looked up)
chain: MDEHLISTINKLQDALAPLGGGSQSPIDLPQITVVGSQSSGKSSVLENIVGRDFLPRGTGIVTRRPLVLQLINRRPKKSEHAKVNQTANELIDLNINDDDKKKDESGKHQNEGQSEDNKEEWGEFLHLPGKKFYNFDEIRKEIVKETDKVTGANSGISSVPINLRIYSPHVLTLTLVDLPGLTKVPVGDQPPDIERQIKDMLLKYISKPNAIILSVNAANTDLANSDGLKLAREVDPEGTRTIGVLTKVDLMDQGTDVIDILAGRVIPLRYGYIPVINRGQKDIEHKKTIREALENERKFFENHPSYSSKAHYCGTPYLAKKLNSILLHHIRQTLPEIKAKIEATLKKYQNELINLGPETMDSASSVVLSMITDFSNEYAGILDGEAKELSSQELSGGARISYVFHETFKNGVDSLDPFDQIKDSDIRTIMYNSSGSAPSLFVGTEAFEVLVKQQIEEFEEPSLRLVTLVFDELVRMLKQIISQPKYSRYPALREAISNQFIQFLKDATIPTNEFVVDIIKAEQTYINTAHPDLLKGSQAMVMVEEKLHPRQVAVDPKTGKPLPTQPSSSKAPVMEEKSGFFGGFFSTKNKKKLAALESPPPVLKATGQMTERETMETEVIKLLISSYFSIVKRTIADIIPKALMLKLIVKSKTDIQKVLLEKLYGKQDIEELTKENDITIQRRKECKKMVEILRNASQIVSSV
notes: Vps1 of budding yeast with the charge-switch mutations R457E and R458E in a helix of the stalk domain; Made by site-directed mutagenesis of template plasmids pKA677 and pKA850; also called RR-EE; Vps1 RR-EE; source: E. coli (C43), purified
binding result [1]: binds
